# B1: Amyloglucosidase from Aspergillus niger: Hydrolyses α-D-(1-4), α-D-(1-6) and α-D-(1-3) glucosidic bonds of oligosaccharides; Sigma #A7420 (protein, UniProt P69328 25-640, looked up)
# Glucoamylase: ATLDSWLSNEATVARTAILNNIGADGAWVSGADSGIVVASPSTDNPDYFYTWTRDSGLVLKTLVDLFRNGDTSLLSTIENYISAQAIVQGISNPSGDLSSGAGLGEPKFNVDETAYTGSWGRPQRDGPALRATAMIGFGQWLLDNGYTSTATDIVWPLVRNDLSYVAQYWNQTGYDLWEEVNGSSFFTIAVQHRALVEGSAFATAVGSSCSWCDSQAPEILCYLQSFWTGSFILANFDSSRSGKDANTLLGSIHTFDPEAACDDSTFQPCSPRALANHKEVVDSFRSIYTLNDGLSDSEAVAVGRYPEDTYYNGNPWFLCTLAAAEQLYDALYQWDKQGSLEVTDVSLDFFKALYSDAATGTYSSSSSTYSSIVDAVKTFADGFVSIVETHAASNGSMSEQYDKSDGEQLSARDLTWSYAALLTANNRRNSVVPASWGETSASSVPGTCAATSAIGTYSSVTVTSWPSIVATGGTTTTATPTGSGSVTSTSKTTATASKTSTSTSSTSCTTPTAVAVTFDLTATTTYGENIYLVGSISQLGDWETSDGIALSADKYTSSDPLWYVTVTLPAGESFEYKFIRIESDDSVEWESDPNREYTVPQACGTSTATVTDTWR
# B2: Proteinase K from Tritirachium album: Broad protease specificity; Fischer #BP1700-100 (protein, UniProt P06873 106-384, looked up)
# Proteinase K: AAQTNAPWGLARISSTSPGTSTYYYDESAGQGSCVYVIDTGIEASHPEFEGRAQMVKTYYYSSRDGNGHGTHCAGTVGSRTYGVAKKTQLFGVKVLDDNGSGQYSTIIAGMDFVASDKNNRNCPKGVVASLSLGGGYSSSVNSAAARLQSSGVMVAVAAGNNNADARNYSPASEPSVCTVGASDRYDRRSSFSNYGSVLDIFGPGTSILSTWIGGSTRSISGTSMATPHVAGLAAYLMTLGKTTAASACRYIADTANKGDLSNIPFGTVNLLAYNNYQA
# B3: Trypsin from bovine pancreas: Serine peptidase; Sigma #T8658 (protein, UniProt P00760 24-246, looked up)
# Serine protease 1: IVGGYTCGANTVPYQVSLNSGYHFCGGSLINSQWVVSAAHCYKSGIQVRLGEDNINVVEGNEQFISASKSIVHPSYNSNTLNNDIMLIKLKSAASLNSRVASISLPTSCASAGTQCLISGWGNTKSSGTSYPDVLKCLKAPILSDSSCKSAYPGQITSNMFCAGYLEGGKDSCQGDSGGPVVCSGKLQGIVSWGSGCAQKNKPGVYTKVCNYVSWIKQTIASN
# B4: Papain from papaya latex: Cysteine peptidase; Sigma #P5306 (protein, UniProt P00784 134-345, looked up)
# Papain: IPEYVDWRQKGAVTPVKNQGSCGSCWAFSAVVTIEGIIKIRTGNLNEYSEQELLDCDRRSYGCNGGYPWSALQLVAQYGIHYRNTYPYEGVQRYCRSREKGPYAAKTDGVRQVQPYNEGALLYSIANQPVSVVLEAAGKDFQLYRGGIFVGPCGNKVDHAVAAVGYGPNYILIKNSWGTGWGENGYIRIKRGTGNSYGVCGLYTSSFYPVKN
# How the values were obtained:
# [1] = tested on: D. citri stylet sheaths (ACP SSs); assay: Degradation of preformed, solidified stylet sheaths by enzymes (MFC membrane or slide incubation); parameters: species or system Diaphorina citri; key to Sheath Degradation: −: No effect apparent; +/−: inconclusive; +: apparent slight effect; ++: increased apparent effect; +++: high effect; ++++: very high effect; +++++: complete degradation of sheaths or inhibition of sheath synthesis; conditions: for Sheath Degradation: enzyme concentration, pH and temperature per Table 4 (cellulase 1:25, pH 6.0, 60° C.); for Effect on preformed D. citri stylet sheaths: cellulase 1:25, pH 6.0, 60° C., 72 hours, Flavourzyme about 30 minutes, proteinase K 55° C. overnight
# Protocol: In order to test cellulase's effect on preformed ACP SSs, formed, solidified stylet sheaths were harvested directly from the surface of an MFC membrane (in these experiments either plastic wrap or parafilm was used) as described herein and in Morgan et al. 2013, supra. Approximately 100 psyllids were placed into an MFC for about 24 hours. The MFCs consisted of D. citri caged individually and/or in groups within 100 mm×15 mm plastic Petri dishes. A single kitchen plastic wrap layer was stretched across the top of each Petri dish to seal the Petri dish from insect escape and to provide a stylet penetrable surface for insect probing.
# Several MFCs (the Petri dishes covered with kitchen plastic wrap or parafilm and containing D. citri) were placed into clear Pyrex® baking dishes with the membrane (kitchen plastic wrap or parafilm) side up, and the Pyrex® baking dish is covered with a single layer of clear kitchen plastic wrap to prevent external contaminant interactions with the membrane surface during incubation. MFCs were incubated at a temperature of about 25° C., relative humidity of about 75%, and a light:dark cycle of about 14:1. Collection of partial stylet sheaths, shaft/branching portions without the flange, was performed using deionized water applied directly to the sheath surface to wash the surface of the MFC, and then the application of approximately 100 μl of an approximately 50 mM sodium phosphate buffer at a pH of approximately 6.0 for direct harvest of partial sheaths from the membrane surface using a bent glass rod to scour the plastic wrap surface to dislodge the stylet sheaths. The sodium phosphate buffer containing dislodged sheath shafts was removed using a pipette and placed in a microcentrifuge tube (1.5 ml tube), and cellulase (Sigma #C2605, Sigma Aldrich, St. Louis, Mo.) was added by ratio at approximately 1 part cellulase to 25 parts sodium phosphate buffer (approximately 1:25 ratio). Approximately 15 μl was then transferred to a pre-cleaned glass slide (Fisher, #12-550-19, Thermo Fisher Scientific, Inc., Waltham Mass.), covered with a premium cover slip, and edges sealed using clear nail polish CG, 3INI NL #Q004 SHN ON (CoverGirl, Hunt Valley, Md.) to keep the buffer from evaporating during incubation. This slide was then placed in an approximately 60° C. incubator of about 72 hours and observed at about 24 hour intervals.
# FIGS. 3A, 3B, and 3C and FIGS. 3D, 3E, and 3F are light micrograph pictures of repeated experiments representing separate treatment of two salivary sheaths. FIG. 3A and FIG. 3D are separate salivary sheaths prior to the addition of cellulase. FIG. 3B and FIG. 3E are the same sheaths, respectively, after 72 hours incubation with cellulase. FIG. 3C and FIG. 3F are the same sheaths, respectively, when gentle pressure was applied to the coverslip over the sheaths that had been incubated with cellulase for 72 hours. […] Because of the observed result with cellulase, sheath degradation experiments as described above for cellulase were performed using a number of polysaccharide-degrading enzymes and proteases. […] Both carbohydrate-degrading enzymes and proteases were effective at degrading the sheaths.
# While not wishing to be bound to any particular hypothesis, based on the results of Examples 1, 2, and 3, it is hypothesized that the structure of the ACP SSs could include protein cross-links that are catalyzed by an enzyme with an oxidative role, an enzyme at least somewhat similar to a lysyl oxidase. To determine if a protein is associated with the identified glucan, proteases were tested in experiments similar to Examples 1 and 2 above. The following proteases were added individually in separate experiments (described infra) to membranes on which D. citri adults were previously allowed to first form sheaths in the absence of proteases: Flavourzyme® (a protease cocktail), carboxypeptidase W, chymopapain, bromelain, papain, ficin, licheninase, laminarinase, and β-(1→3)-D-glucanase. […]
# D. citri [2] = assay: Liquid ACP diet sandwich feeding assay (MFC): inhibition of de novo stylet sheath formation; format: in vivo, Diaphorina citri; conditions: about 24 h; cellulase approx 1 unit/μl; BAPN 100 mM; EDTA approx 2 mM; proteases per Table 5
# Protocol: (§1) The next step was to determine if addition of cellulase to the diet of D. citri would interfere with stylet sheath formation. A D. citri diet is prepared as described by Hall, David et al., “Research toward an artificial diet for adult Asian citrus psyllid,” Annals of the Entomological Society of America 103.4:611-617 (2010). Approximately 25 D. citri were collected into polystyrene Cellstar 35 mm×10 mm dishes (Griener Bio-One, Monroe, N.C.) that were then sealed using a single layer of Parafilm® M (Pechiney Plastic Packaging Company, Chicago, Ill.). Approximately 99 μl of liquid ACP diet (e.g., diet lacking the solidifying agar component, see Hall, et. al., 2010, supra) was mixed with approximately 1 μl of cellulase (Sigma Aldrich, St. Louis, Mo.) and mixed. […]
# (§2) Because many biomolecule polymerizing enzymes require divalent cations as cofactors, the effect of ethylenediaminetetraacetic acid (EDTA), a chelator of divalent cations, on ACP SS formation was tested by adding EDTA to the previously described liquid ACP diet (see Hall et al., 2010, supra). […] Uncommon bands between the liquid ACP diet containing EDTA and liquid ACP diet without EDTA (negative control) lanes were cut out and analyzed by Orbitrap (Thermo Scientific, Waltham, Mass.) protein analysis, according to manufacturer's protocol. […]
# D. citri [3] = assay: as above; format: in vivo, Diaphorina citri; parameters: key: −: No effect apparent; +/−: inconclusive; +: apparent slight effect; ++: increased apparent effect; +++: high effect; ++++: very high effect; +++++: complete degradation of sheaths or inhibition of sheath synthesis; conditions: enzyme in liquid ACP diet, about 24 h, 25° C., enzyme amounts and pH per Table 5 (cellulase approx 1 unit/μl)
# Protocol: as §1, §2
molecule,measurement,setting,value
B1,"Sheath Degradation, remark in words",[1]; D. citri preformed sheaths,Sheaths swell
same,Sheath Degradation,[1]; D. citri preformed sheaths,++
same,Effect on preformed D. citri stylet sheaths,[1],adversely impact stylet sheath integrity
B2,Sheath Degradation,[1]; D. citri preformed sheaths,+++++
same,Effect on preformed D. citri stylet sheaths,[1],completely dissolves
B3,Sheath Degradation,[1]; D. citri preformed sheaths,−
same,Effect on D. citri stylet sheath formation in liquid ACP diet,D. citri [2],did not appear to have an inhibitory effect
same,Inhibition of Sheath Formation,D. citri [3],−
B4,Sheath Degradation,[1]; D. citri preformed sheaths,++
same,Effect on D. citri stylet sheath formation in liquid ACP diet,D. citri [2],capable of inhibiting the formation of ACP SSs
same,Inhibition of Sheath Formation,D. citri [3],++++

# Source: patent publication US9949489B2, “Methods for control of hemipteran insect stylet sheath structure formation” (The United States of America, as Represented by the …, priority 2015, dated 2018)
